Assay results published in publication PMC9105526, “Escherichia coli tRNA 2-Selenouridine Synthase (SelU): Elucidation of Substrate Specificity to Understand the Role of S-Geranyl-tRNA in the Conversion of 2-Thio- into 2-Selenouridines in Bacterial tRN”.

T1: MBP-SelU (tRNA 2-selenouridine synthase) (Escherichia coli, UniProt P33667 1-364)
T1 sequence: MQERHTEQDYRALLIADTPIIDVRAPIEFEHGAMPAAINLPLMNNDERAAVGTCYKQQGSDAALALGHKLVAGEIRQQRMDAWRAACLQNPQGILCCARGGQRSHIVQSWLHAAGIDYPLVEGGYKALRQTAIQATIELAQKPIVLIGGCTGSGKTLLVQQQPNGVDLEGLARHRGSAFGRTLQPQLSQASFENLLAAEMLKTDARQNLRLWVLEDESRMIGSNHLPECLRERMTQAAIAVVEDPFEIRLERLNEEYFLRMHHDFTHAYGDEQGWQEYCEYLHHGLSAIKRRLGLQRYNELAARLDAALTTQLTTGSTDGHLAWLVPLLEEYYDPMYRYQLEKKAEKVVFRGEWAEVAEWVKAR


Molecular target: T1, MBP-SelU (tRNA 2-selenouridine synthase)
Assay: MST (initial fluorescence); 10 mM Mg2+; MST: 2x assay buffer 20 mM Tricine pH 7.2, 20 mM MgCl2, 0.1% Tween-20 mixed with RNA (about 10 mM Tricine, 10 mM MgCl2, 0.05% Tween-20 final if 1:1); Cy3-RNA 50-75 nM; 30 min at room temperature, measured at 22 C
Conditions: protein: recombinant, tags: N-terminal MBP (42 kDa, pMAL-c5x), label: 5'-Cy3, hairpin

Binder	Kd (7-nt loop)	Kd (7-nt loop CUUUUAA)
GUUGACUUUUAAUCAAC (structured_RNA, S-geranyl-2-thiouridine (geS2U) at nt 8 (tRNA position 34)) [Cy3-geS2U(34)-RNALys]	3.95 ± 0.4 µM	–
GUUGACUUUUAAUCAAC (structured_RNA, 2-selenouridine (Se2U) at nt 8 (tRNA position 34)) [Cy3-Se2U(34)-RNALys]	27.1 ± 1.5 µM	–
GUUGACUUUUAAUCAAC (structured_RNA, 2-thiouridine (S2U) at nt 8 (tRNA position 34)) [Cy3-S2U(34)-RNALys]	22.4 ± 1.6 µM	–
GUUGACUUUUAAUCAAC (structured_RNA) [Cy3-U(34)-RNALys]	–	25.5 ± 1.8 µM
